Measurements reported in US20080076731A1 (UNIVERSITY OF SOUTH FLORIDA, published 2008).

Molecular target: T1, SH2-containing inositol-5-phosphatase (SHIP), mouse, endogenous protein in NK cell lysates (mouse, UniProt Q9ES52 1-1191, limits assumed)
T1 construct: Endogenous protein co-immunoprecipitated from NK-enriched C57BL6/J splenocyte lysates (modified RIPA buffer) and detected by Western blot with anti-SHIP P2C6; also called SH2-containing Inositol Polyphosphatase; 135/145 kD SHIP isoforms
T1 sequence (looked up): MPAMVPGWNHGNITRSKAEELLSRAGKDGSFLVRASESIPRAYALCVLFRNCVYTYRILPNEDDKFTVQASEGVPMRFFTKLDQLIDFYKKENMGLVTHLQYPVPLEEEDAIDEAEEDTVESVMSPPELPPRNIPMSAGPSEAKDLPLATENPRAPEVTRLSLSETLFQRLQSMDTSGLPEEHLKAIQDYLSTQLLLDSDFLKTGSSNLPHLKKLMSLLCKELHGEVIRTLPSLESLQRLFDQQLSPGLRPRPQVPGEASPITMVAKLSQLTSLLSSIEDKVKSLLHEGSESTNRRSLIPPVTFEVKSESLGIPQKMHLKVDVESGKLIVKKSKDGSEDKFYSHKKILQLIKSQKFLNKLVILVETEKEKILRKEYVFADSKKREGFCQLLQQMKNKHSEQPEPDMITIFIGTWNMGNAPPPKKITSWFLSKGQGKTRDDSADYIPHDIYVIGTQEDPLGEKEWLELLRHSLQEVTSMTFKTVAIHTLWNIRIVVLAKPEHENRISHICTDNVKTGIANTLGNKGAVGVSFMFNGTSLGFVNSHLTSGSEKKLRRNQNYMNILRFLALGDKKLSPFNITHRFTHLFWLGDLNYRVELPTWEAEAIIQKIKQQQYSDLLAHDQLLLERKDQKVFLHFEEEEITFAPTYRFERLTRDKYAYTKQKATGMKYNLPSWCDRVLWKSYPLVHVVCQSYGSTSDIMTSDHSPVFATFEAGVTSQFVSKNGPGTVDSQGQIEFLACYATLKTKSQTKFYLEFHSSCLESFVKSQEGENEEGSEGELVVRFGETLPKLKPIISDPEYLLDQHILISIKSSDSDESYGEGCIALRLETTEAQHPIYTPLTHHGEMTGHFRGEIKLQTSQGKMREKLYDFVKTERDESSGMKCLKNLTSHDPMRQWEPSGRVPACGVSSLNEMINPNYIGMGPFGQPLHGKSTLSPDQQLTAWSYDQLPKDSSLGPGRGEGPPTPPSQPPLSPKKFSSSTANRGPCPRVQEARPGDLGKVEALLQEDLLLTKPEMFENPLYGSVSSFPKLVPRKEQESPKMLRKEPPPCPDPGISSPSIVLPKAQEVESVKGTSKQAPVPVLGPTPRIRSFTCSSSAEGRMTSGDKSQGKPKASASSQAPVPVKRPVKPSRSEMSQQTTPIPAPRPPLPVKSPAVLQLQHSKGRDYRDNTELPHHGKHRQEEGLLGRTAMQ
Assay: co-immunoprecipitation from NK-enriched splenocyte lysates, Western blot with anti-SHIP P2C6
Text: Equal quantities of protein from cells lysates prepared from SHIP^{+/+} and SHIP^{-/-} NK cells are resolved on a 4-12% Tris-Bis polyacrylamide gel (Invitrogen), transferred to a nitrocellulose membrane (Amersham) and the filters probed with an anti-Akt-P(Threo) antibody (Cell Signaling) at a 1:1000 dilution. […] The blot is then stripped and reprobed in a similar manner using an anti-β-actin antibody (Cell Signaling) as an internal control for protein loading.
Thus, in FIG. 5, SHIP is shown to be recruited to NK inhibitory receptors and to oppose Akt activation in vivo. […] A mock immunoprecipitation of the NK lysates with an IgG2a antibody is analyzed in parallel as a negative control. The results of these immunoprecipitations are representative of two independent analyses of NK-enriched splenocytes. […] Immunoprecipitation of SHIP from NK cell lysates serves as positive control in both (A) and (B). In (A) a one-tenth exposure of the SHIP lane enables the 135/145 kD SHIP isoforms to be distinguished clearly. […] To control for the amount of cell lysate loaded in each sample, the Akt-P blot is stripped and re-probed with an antibody specific for β-actin, GAPDH, and cc tubulin. […] Immunoprecipitation with a murine IgG2a antibody (IgG2a) is analyzed as a negative control and SHIP is immunoprecipitated as a positive control. […]

binding result: no binding
B1: Ly49G2, mouse NK inhibitory receptor (receptor, UniProt Q60654-2 1-267, looked up)
chain: MSEQEVTYSTVRFHESSRLQKLVRTEEPQRPREACYREYSVPWKLIVIACGILCFLLLVTVALLAITIFQHSQQKHELQETLNCHDNCSPTQSDVNLKDELLRNKSIECRPGNDLLESLSRDQNRWYSETKTFSDSSQHTGRGFEKYWFCYGIKCYYFNMDRKTWSGCKQTCQISSLSLLKIDNEDELKFLQNLAPSDISWIGLSYDNKKKDWVWIDNGPSKLALNTTKYNIRDGLCMSLSKTRLDNGDCDKSYICICGKRLDKFPH
notes: Immunoprecipitated with anti-Ly49G2 (4D11)
